Read-outs that look alike come from different tables or passages of the source. Marks after values point to notes of the source that are not given here. One block for each molecule: values may come before it.
Legend:
[1] = ADH activity with acetaldehyde as substrate; assay type: biochemical
From the text: (§1) (J. Mol. Catal. B-Enzym. 2009, 61, 30-35).

[2] = ADH activity, NADH-dependent reduction of isobutyraldehyde; assay type: biochemical; details: substrate isobutyraldehyde
From the text: as §1

[3] = Ethanol tolerance of enzymes (E50); assay type: biochemical
[4] = Isobutanol tolerance of enzymes (I50); assay type: biochemical
[5] = cited from earlier work
[6] = Enzyme half-life at 50° C.
[7] = KDGA activity in cleavage direction (HPLC); assay type: biochemical; details: natural substrate
Experimental: as §1
KDGA activity: KDGA activity was followed in cleavage direction at 50° C. Reaction mixture contained 50 mM HEPES (pH 7), 0.1 mM thiamine pyrophosphate, 2.5 mM MgCl2, 20 U PDC and 10 mM KDG. KDG cleavage was followed by HPLC as described below.
Sample volume was 10 μl in each case.

[8] = ALDH activity assay (glyceraldehyde to glycerate, NAD reduction); assay type: biochemical; details: natural substrate
Experimental: as §1
ALDH activity: ALDH activity was assayed at 50° C. by oxidizing D-glyceraldeyde to glycerate, whereby the coenzyme NAD is reduced to NADH. Assay mixture contained 50 mM HEPES (pH 7), 2.5 mM MgCl2, 2 mM NAD and 1 mM glyceraldehyde. (FEBS Lett. 2006, 580, 1198-1204)

[9] = Determination of specific activity of purified TaALDH variants; assay type: biochemical; details: purified enzyme, 1 mM D-Glyceraldehyde, 50° C., pH 7
From the text: The Ta-aldh gene was cloned in pCBR-Chis expression vector as described above. Mutations F34L, F34M, Y399C, S405C and S405N were inserted into Ta-aldh gene by Quickchange PCR as described above. For recombinant expression, E. coli BL21 (DE3) was transformed with pCBR-Ta-aldh-Chis, pCBR-Ta-aldh-f34I-s405c-Chis, pCBR-Ta-aldh-f34m-s405n-Chis or pCBR-Ta-aldh-f34m-y399c-s405n-Chis. Each of the four variants was produced using the following protocol:
Large amounts of a TaALDH-Variant were produced with fed-batch fermentation in a 40 L Biostat Cplus bioreactor (Sartorius Stedim, Goettingen, Germany). Defined media was supplemented with 30 μg/ml kanamycin. After inoculation cells were grown at 30° C. for 24 h and induced with 0.3 mM IPTG. Enzyme expression was performed at 30° C. for 3 h. One fermentation produced 300 g cells (wet weight). Cells were harvested and lysed with Basic-Z Cell Disruptor (Constant Systems, Northants, UK) in loading buffer (200 mM NaCl; 20 mM Imidazol; 2.5 mM MgCl2; 50 mM NaPi, pH 6.2). After heat treatment at 50° C. for 30 min, cell debris and protein aggregates were separated from soluble fraction by centrifugation at 30,000 g at 20° C. for 30 min (Sorvall RC6+, SS-34 rotor, Thermo Scientific).
Soluble fraction of His-tagged TaALDH-Variant was further purified by Ni-NTA chromatography using ÄKTA UPC-900 FPLC-system (GE Healthcare, Freiburg, Germany). Supernatant was loaded on HiTrap FF-column and washed with two column volumes of loading buffer. Highly purified and concentrated TaALDH was fractioned after elution in imidazole buffer (200 mM NaCl; 500 mM imidazol; 50 mM NaPi, pH 6.2). Buffer was changed to 20 mM (NH4)HCO3 with HiPrep 26/10 Desalting column and TaALDH was lyophilized with an Alpha 2-4 LD Plus freeze dryer (Martin Christ GmbH, Osterode am Harz, Germany).
TaALDH activity was determined spectrophotometrically at 50° C. by measuring the rate of cofactor reduction at 340 nm in flat bottom microtiter plates (Grainer BioOne) with a Fluorostar Omega Photometer (BMG Labtech GmbH, Ortenberg, Germany). One unit of activity was defined as reduction of 1 μmol of cofactor per minute.

[10] = Screening of TaALDH variants, relative activity under standard conditions (2 mM NAD); assay type: biochemical
Experimental: (§2) Colonies of E. coli BL21 (DE3) containing Ta-ALDH library were transferred into 96-deepwell plates (Gainer BioOne) containing Zym5052 autoinduction medium (Protein Expression and Purification, 2005. 41(1): p. 207-234). Cultures were grown over night at 37° C., 1000 rpm. Cells were harvested by centrifugation at 5000 g at 2° C. for 2 min and lysed with B-Per® protein extraction reagent (Thermo Fisher Scentific, Rockford, USA). After incubation for 60 min at 50° C., insoluble cell debris and was removed by centrifugation at 5000 g at 20° C. for 30 min. Supernatants containing variants of TaALDH were tested for relative activity under standard conditions: 2 mM NAD, 1 mM D-glyceraldehyde in 50 mM HEPES (pH 7) at 50° C. After 20 min NADH formation was detected spectrophotometrically at 340 nm.
(§3) The values “relative to wt” are the mU/mL values normalized to the wildtype control value.

[11] = Cofactor acceptance of Ta-ALDH variants (10 mM NAD); assay type: biochemical
Experimental: as §2
Change in cofactor acceptance of Ta-ALDH variants was tested under standard assay conditions but with 10 mM NAD. After 20 min NADH formation was detected and compared to relative activity.
as §3

[12] = Activity in solvents of Ta-ALDH variants (3 % isobutanol); assay type: biochemical
Experimental: as §2
Activity in solvents of Ta-ALDH variants was tested under standard assay conditions containing additional solvent. After 20 min NADH formation was detected and compared to relative activity.
as §3

[13] = PDC activity for natural substrate; assay type: biochemical
From the text: as §1

[14] = Enzyme temperature optimum; assay type: biochemical; details: Table 1
[15] = Thermal tolerance of PDC; assay type: physicochemical
[16] = Table 1, value with literature reference
[17] = Table 2, value with literature reference

B1: ADH: Alcohol dehydrogenase ADH (EC 1.1.1.1), Geobacillus stearothermophilus, Seq ID 18 (protein)
chain: MKAAVVEQFKEPLKIKEVEKPTISYGEVLVRIKACGVCHTDLHAAHGDWPVKPKLPLIPGHEGVGIVEEVGPGVTHLKVGDRVGIPWLYSACGHCDYCLSGQETLCEHQKNAGYSVDGGYAEYCRAAADYVVKIPDNLSFEEAAPIFCAGVTTYKALKVTGAKPGEWVAIYGIGGLGHVAVQYAKAMGLNVVAVDIGDEKLELAKELGADLVVNPLKEDAAKFMKEKVGGVHAAVVTAVSKPAFQSAYNSIRRGGACVLVGLPPEEMPIPIFDTVLNGIKIIGSIVGTRKDLQEALQFAAEGKVKTIIEVQPLEKINEVFDRMLKGQINGRVVLTLEDKLEHHHHHH
modifications: Alcohol dehydrogenase (EC 1.1.1.1), Geobacillus stearothermophilus Protein sequence including C-terminal His-Tag
Activity, 50° C. (ADH for acetaldehyde) [1]: 210 U/mg
Activity, 50° C. (ADH for isobutyraldehyde) [2]: 83 U/mg
E50: Ethanol concentration which causes loss of 50% activity ([3]; 50° C.): 25 (50° C.) % v/v
I50: Isobutanol concentration which causes loss of 50% activity ([4]; 50° C.): 5 (50° C.) % v/v
T-Optimum [5, 16]: >60^[3] 50 °C
T-Optimum [5, 17]: >60^[3] ° C.
Half-life, 50° C. [6]: >24 h

B2: KDGA: 2-Keto-3-deoxygluconate aldolase KDGA (EC 4.1.2.14), Sulfolobus acidocaldaricus, Seq ID 06 (protein, listed as Sulfolobus acidocaldarius)
chain: MEIISPIITPFDKQGKVNVDALKTHAKNLLEKGIDAIFVNGTTGLGPALSKDEKRQNLNALYDVTHKLIFQVGSLNLNDVMELVKFSNEMDILGVSSHSPYYFPRLPEKFLAKYYEEIARISSHSLYIYNYPAATGYDIPPSILKSLPVKGIKDTNQDLAHSLEYKLNLPGVKVYNGSNTLIYYSLLSLDGVVASFTNFIPEVIVKQRDLIKQGKLDDALRLQELINRLADILRKYGSISAIYVLVNEFQGYDVGYPRPPIFPLTDEEALSLKREIEPLKRKIQELVH
Activity, 50° C. [7]: 4 U/mg
E50: Ethanol concentration which causes loss of 50% activity ([3]; 60° C.): 15 (60° C.) % v/v
I50: Isobutanol concentration which causes loss of 50% activity ([4]; 60° C., above solubility): >12 (60° C.)^b % v/v
activity in a two-phase isobutanol/water system ([4]; two-phase system forms at product titers above 12% (v/v)): remains completely active
T-Optimum [5, 16]: 99^[1] 50 °C
T-Optimum [5, 17]: 99^[1] ° C.
Half-life, 50° C. [6]: >24 h

B3: F34M Y399C S405N: Aldehyde Dehydrogenase ALDH (EC 1.2.1.3), Thermoplasma acidophilum, Mutations F34M+Y399C+S405N, Seq ID 10; the engineered ALDH of Tables 1 and 2 (protein)
chain: MDTKLYIDGQWVNSSSGKTVDKYSPVTGQVIGRMEAATRDDVDRAIDAAEDAFWAWNDLGSVERSKIIYRAKELIEKNRAELENIIMEENGKPVKEAKEEVDGVIDQIQYYAEWARKLNGEVVEGTSSHRKIFQYKVPYGIVVALTPWNFPAGMVARKLAPALLTGNTVVLKPSSDTPGSAEWIVRKFVEAGVPKGVLNFITGRGSEIGDYIVEHKKVNLITMTGSTATGQRIMQKASANMAKLILELGGKAPFMVWKDADMDNALKTLLWAKYWNAGQSCIAAERLYVHEDIYDTFMSRFVELSRKLALGDPKNADMGPLINKGALQATSEIVEEAKESGAKILFGGSQPSLSGPYRNGYFFLPTIIGNADQKSKIFQEEIFAPVIGARKISSVEEMCDLANDNKYGLASYLFTKDPNIIFEASERIRFGELYVNMPGPEASQGYHTGFRMTGQAGEGSKYGISEYLKLKNIYVDYSGKPLHINTVRDDLFQSGRPVLGSSHHHHHH
modifications: Aldehyde Dehydrogenase (EC 1.2.1.3), Thermoplasma acidophilum, variant F34M-Y399C-S405N Protein sequence including C-terminal His-Tag
Activity, 50° C. [8]: 1 U/mg
E50: Ethanol concentration which causes loss of 50% activity ([3]; 60° C.): 13 (60° C.) % v/v
isobutanol concentration that already induces adverse effects on activity [4]: 3 % (v/v)
I50: Isobutanol concentration which causes loss of 50% activity ([4]; 50° C.): 3 (50° C.) % v/v
specific activity (U/mg) at 2 mM NAD [9]: 1.2 U/mg
2 mM NAD (mU/mL) ([10]; 1 mM D-glyceraldehyde, 50° C., pH 7, lysate supernatant): 130.81 mU/mL
relative to wt ([10]; mU/mL values normalized to the wildtype control value): 45.3
10 mM NAD (mU/mL) ([11]; 10 mM NAD, 1 mM D-glyceraldehyde, 50° C., pH 7): 396.91 mU/mL
relative to wt ([11]; 10 mM NAD, normalized to the wildtype control value): 33.3
10 mM NAD /2 mM NAD ([11]; ratio of activity at 10 mM NAD to 2 mM NAD): 0.7
3 % isobutanol, 2 mM NAD (mU/mL) ([12]; 3 % isobutanol, 2 mM NAD, 50° C., pH 7): 74.77 mU/mL
relative to wt ([12]; 3 % isobutanol, 2 mM NAD, normalized to the wildtype control value): 46.9
Stab. rel to wt ([12]; stability in 3 % isobutanol relative to wildtype): 1
T-Optimum [5, 16]: 63^[2] 50 °C
T-Optimum [5, 17]: 63^[2] ° C.
Half-life, 50° C. [6]: 12 h

T-Optimum [14]: 50 50 °C
B4: PDC: Pyruvate decarboxylase PDC (EC 4.1.1.1), Zymomonas mobilis, Seq ID 20 (protein)
chain: MSYTVGTYLAERLVQIGLKHHFAVAGDYNLVLLDNLLLNKNMEQVYCCNELNCGFSAEGYARAKGAAAAVVTYSVGALSAFDAIGGAYAENLPVILISGAPNNNDHAAGHVLHHALGKTDYHYQLEMAKNITAAAEAIYTPEEAPAKIDHVIKTALREKKPVYLEIACNIASMPCAAPGPASALFNDEASDEASLNAAVEETLKFIANRDKVAVLVGSKLRAAGAEEAAVKFADALGGAVATMAAAKSFFPEENPHYIGTSWGEVSYPGVEKTMKEADAVIALAPVFNDYSTTGWTDIPDPKKLVLAEPRSVVVNGIRFPSVHLKDYLTRLAQKVSKKTGALDFFKSLNAGELKKAAPADPSAPLVNAEIARQVEALLTPNTTVIAETGDSWFNAQRMKLPNGARVEYEMQWGHIGWSVPAAFGYAVGAPERRNILMVGDGSFQLTAQEVAQMVRLKLPVIIFLINNYGYTIEVMIHDGPYNNIKNWDYAGLMEVFNGNGGYDSGAGKGLKAKTGGELAEAIKVALANTDGPTLIECFIGREDCTEELVKWGKRVAAANSRKPVNKLLSGRPVLGSSHHHHHH
modifications: Pyruvate decarboxylase (EC 4.1.1.1), Zymomonas mobilis Protein sequence including C-terminal His-Tag
Activity, 50° C. [13]: 64 U/mg
E50: Ethanol concentration which causes loss of 50% activity ([3]; 50° C.): 20 (50° C.) % v/v
I50: Isobutanol concentration which causes loss of 50% activity ([4]; 45° C.): 8 (45° C.) % v/v
thermostable up to [15]: up to 50 °C
Half-life, 50° C. [6]: 22 h
